Laboratory results from patent US20220281997A1 (NANJING GENSCRIPT BIOTECH, published 2022).

Columns and labels:
AS154 VHH = molecular target: T1, AS154 VHH (camel-derived); experiment: indirect ELISA, VHH coated
T1 construct: One of the 10 different camel-derived nanobodies; not shown: His tag (VHH-His)
Procedure: (§1) The ELISA plate was coated with 10 different VHHs at […] in 100 μl/well of PBS at 4° C. overnight, respectively; the plate was washed with PBS-T (0.05% Tween) and blocked with 200 μl/well of PBST containing 1% BSA at 37° C. for 0.5 hours; the blocking solution was aspirated and discarded, and 100 μl of 1 μg/ml purified antibodies were added to the first well, diluted in a 3-fold gradient for a total of 11 test concentration gradients and incubated at room temperature for 1 hour; the plate was washed three times with PBST and incubated with 100 μl/well of goat anti-rabbit IgG conjugated with horseradish peroxidase (GenScript Goat Anti-Rabbit IgG Antibody (H&L) [HRP], pAb; CAT #: A00098) at 37° C. for 0.5 hours; the plate was washed five times with PBST, and then a TMB color developing solution was added; and the plate was incubated in the dark at room temperature for 15 minutes. The reaction was stopped by adding 50 μl of 1 M HCl stop solution. The plate was read at 450 nm using a microplate reader; and the binding abilities of 15 clones to VHH-His were obtained (as shown in FIGS. 6a and 6b). […] On one hand, the affinities of the antibody of the same camel-derived nanobody to different camel-derived nanobodies were different; on the other hand, the affinities of different antibodies of camel-derived nanobodies to the same camel-derived nanobody were different. However, on the whole, all the 15 purified antibodies can be recognized with 10 different camel-derived nanobodies.

AS325 VHH = molecular target: T2, AS325 VHH (camel-derived); experiment: indirect ELISA, VHH coated
T2 construct: One of the 10 different camel-derived nanobodies; not shown: His tag (VHH-His)
Procedure: as §1

AS656 VHH = molecular target: T3, AS656 VHH (camel-derived); experiment: indirect ELISA, VHH coated
T3 construct: One of the 10 different camel-derived nanobodies; not shown: His tag (VHH-His)
Procedure: as §1

AS673 VHH = molecular target: T4, AS673 VHH (camel-derived); experiment: indirect ELISA, VHH coated
T4 construct: One of the 10 different camel-derived nanobodies; not shown: His tag (VHH-His)
Procedure: as §1

AS587 VHH = molecular target: T5, AS587 VHH (camel-derived); experiment: indirect ELISA, VHH coated
T5 construct: One of the 10 different camel-derived nanobodies; not shown: His tag (VHH-His)
Procedure: as §1

AS588 VHH = molecular target: T6, AS588 VHH (camel-derived); experiment: indirect ELISA, VHH coated
T6 construct: One of the 10 different camel-derived nanobodies; not shown: His tag (VHH-His)
Procedure: as §1

AS200 VHH = molecular target: T7, AS200 VHH (camel-derived); experiment: indirect ELISA, VHH coated
T7 construct: One of the 10 different camel-derived nanobodies; not shown: His tag (VHH-His)
Procedure: as §1

AS988 VHH = molecular target: T8, AS988 VHH (camel-derived); experiment: indirect ELISA, VHH coated
T8 construct: One of the 10 different camel-derived nanobodies; not shown: His tag (VHH-His)
Procedure: as §1

AS675 VHH = molecular target: T9, AS675 VHH (camel-derived); experiment: indirect ELISA, VHH coated
T9 construct: One of the 10 different camel-derived nanobodies; not shown: His tag (VHH-His)
Procedure: as §1

AS519 VHH = molecular target: T10, AS519 VHH (camel-derived); experiment: indirect ELISA, VHH coated
T10 construct: One of the 10 different camel-derived nanobodies; not shown: His tag (VHH-His)
Procedure: as §1

[1] = molecular target: T11, His-tag camel-derived nanobody AS718 VHH-His (camel-derived); experiment: indirect ELISA, AS718 VHH-His coated, hybridoma supernatant
T11 construct: Immunogen; recombinantly expressed with a C-terminal His tag; also called immunogen AS718; immunogen AS718 VHH-His; not shown: C-terminal His tag
Procedure: The rabbit spleen was extracted and homogenized to produce a single-cell suspension, and a single-cell suspension of myeloma cells was prepared at the same time. 1.0×10⁸ splenocytes were fused with 1.2×10⁵ myeloma cells by electrofusion; the fused cells were resuspended in 100 ml of DMEM/10% FBS culture medium containing hybridoma selective agents, thymidine, hypoxanthine and aminopterin, and transferred to a 150×96-well plate in a volume of 100 μl with a pipette; and the plate was incubated at 37° C. in 6% CO₂. After 9 days of incubation, the indirect ELISA was used to evaluate the binding ability of the antibody in the supernatant to VHH-His, indicating the presence of the antibody to VHH-His.
The ELISA plate was coated with 100 μl/well of 0.5 μg/ml VHH-His or His protein in PBS at 4° C. overnight; the plate was washed with PBS-T (0.05% Tween20) and blocked with 200 μl/well of PBST containing 1% BSA at 37° C. for 0.5 hours; the blocking solution was aspirated and discarded, and 100 μl of hybridoma cell culture supernatant was added to each well and then incubated at room temperature for 1 hour; after the incubation, the supernatant was discarded, and the plate was washed three times with PBST and incubated with 100 μl/well of goat anti-rabbit IgG conjugated with horseradish peroxidase (GenScript Goat Anti-Rabbit IgG Antibody (H&L) [HRP], pAb; CAT #: A00098) at 37° C. for 0.5 hours; the plate was washed five times with PBST, and then a TMB color developing solution was added; and the plate was incubated in the dark at room temperature for 15 minutes. The reaction was stopped by adding 50 μl of 1 M HCl stop solution. The plate was read at 450 nm using a microplate reader. In FIG. 3, by the mode of indirect ELISA, immunogen AS718 VHH-His was used to coat the ELISA detection plate, and the titers of the supernatant stock solutions of 15 parent clones were detected by OD450 reading, and the cross-reactions thereof with the His-tag protein were detected at the same time to exclude non-specific combinations. In the experiment, the positive serum was used as a positive control for immunogen AS718 VHH-His, and the Anti-His antibody was used as a positive control for detection target His-tag protein in the reverse screening. The detection value greater than 0.5 was determined to be positive, and the detection value less than 0.2 was determined to be negative.

Measured: binding result

T2 sequence (VHH, as listed by the source): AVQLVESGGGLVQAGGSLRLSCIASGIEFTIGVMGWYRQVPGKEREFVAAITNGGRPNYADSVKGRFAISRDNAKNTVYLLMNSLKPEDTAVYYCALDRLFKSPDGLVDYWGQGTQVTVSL
T3 sequence (VHH, as listed by the source): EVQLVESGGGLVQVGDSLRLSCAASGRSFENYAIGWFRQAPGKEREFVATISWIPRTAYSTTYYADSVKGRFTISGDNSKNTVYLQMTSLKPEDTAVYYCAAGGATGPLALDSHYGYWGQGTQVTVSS
T6 sequence (VHH, as listed by the source): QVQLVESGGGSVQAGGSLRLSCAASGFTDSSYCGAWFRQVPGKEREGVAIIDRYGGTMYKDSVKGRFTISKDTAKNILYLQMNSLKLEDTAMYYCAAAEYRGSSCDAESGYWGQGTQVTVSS
T5 sequence (VHH, as listed by the source): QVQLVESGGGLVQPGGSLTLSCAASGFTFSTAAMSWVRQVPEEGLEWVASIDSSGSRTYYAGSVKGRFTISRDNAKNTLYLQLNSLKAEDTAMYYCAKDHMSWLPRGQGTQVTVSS
T1 sequence (VHH, as listed by the source): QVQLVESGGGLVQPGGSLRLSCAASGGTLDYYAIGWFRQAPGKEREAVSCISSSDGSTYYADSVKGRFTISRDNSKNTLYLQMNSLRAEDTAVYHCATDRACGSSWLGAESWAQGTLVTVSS
T11 sequence (VHH, as listed by the source): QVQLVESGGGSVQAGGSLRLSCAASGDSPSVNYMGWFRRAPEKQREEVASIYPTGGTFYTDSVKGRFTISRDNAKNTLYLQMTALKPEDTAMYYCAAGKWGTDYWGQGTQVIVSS
T4 sequence (VHH, as listed by the source): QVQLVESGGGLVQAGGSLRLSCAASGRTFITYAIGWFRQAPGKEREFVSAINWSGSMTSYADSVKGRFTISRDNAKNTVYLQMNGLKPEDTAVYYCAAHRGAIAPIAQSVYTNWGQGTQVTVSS
T7 sequence (VHH, as listed by the source): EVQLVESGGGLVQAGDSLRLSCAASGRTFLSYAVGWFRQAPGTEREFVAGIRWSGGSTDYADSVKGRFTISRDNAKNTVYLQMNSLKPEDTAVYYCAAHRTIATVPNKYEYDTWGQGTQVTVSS
T8 sequence (VHH, as listed by the source): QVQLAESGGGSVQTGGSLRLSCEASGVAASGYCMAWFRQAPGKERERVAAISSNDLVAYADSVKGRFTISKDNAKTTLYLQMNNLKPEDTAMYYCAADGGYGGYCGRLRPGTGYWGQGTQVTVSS
T9 sequence (VHH, as listed by the source): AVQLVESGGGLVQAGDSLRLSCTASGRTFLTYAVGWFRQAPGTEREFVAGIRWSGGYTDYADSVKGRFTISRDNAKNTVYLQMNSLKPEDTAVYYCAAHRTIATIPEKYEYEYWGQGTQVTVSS
T10 sequence (VHH, as listed by the source): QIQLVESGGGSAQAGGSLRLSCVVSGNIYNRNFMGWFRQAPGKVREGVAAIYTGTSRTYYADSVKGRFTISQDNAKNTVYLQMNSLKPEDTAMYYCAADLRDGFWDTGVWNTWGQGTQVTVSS

B1: R166.H8 (antibody, V domains shown)
VH: QSVEESGGRLVTPGTPLTLTCTVSGFSLSSFAMSWVRQAPGKGLEWIGIIYATGGTRDYATWAAGRFTISKTSTTVGLKMTSPTTEDTATYFCARDRSPDYSAAFNLWGQGTLVTVSS
VL: IVMTQTPSSKSVPVGDTVTINCQASESVYSNNHLAWFQQKPGQPPKLLIYSASTLESGVPSRFKGSGSGTQFTLTISGVQCDDAATYYCAGYKSSDTDGTSFGGGTEVVVKG
notes: Rabbit monoclonal; also called clone R166.H8
binds: all assays above

B2: R166.E7 (antibody, V domains shown)
VH: QSVEESGGRLVTPGTPLTLTCTVSGFSLSSFAMSWVRQAPGKGLEWIGIIYTGGTRDYATWAKGRFTISKTSTTVDLKMTSPTTEDTATYFCARDRSPDYSAAFNLWGQGTLVTVSS
VL: IVMTQTPSSKSVPVGDTVTINCQASESVYSNNHLAWFQQKPGQPPKLLIYSASTLESGVPSRFKGSGSGTQFTLTISGVQCDDAATYYCAGYKSSDTDGTSFGGGTEVVVKG
notes: Rabbit monoclonal; also called clone R166.E7
binds: all assays above

B3: R166.D1 (antibody, V domains shown)
VH: QSVEESGGRLVKPDESLTLTCTVSGFSLSNYDMIWVRQAPGKGLEWIGVIYPTGTTYYANWVKGRFTISKTSTTVGLLITSPTTEDTATYFCARKPILYVDSSGWYIDLWGQGTLVTVSS
VL: AYDMTQTPSSVSAAVGGTVSIKCQASENINNYLSWYQQKPGQPPKLLIYQASRLASAVPSRFKGSGSGTQFTLTIDDLECADAATYYCQQGHSVSNDVGNVFGGGTEVVVKG
notes: Rabbit monoclonal; also called clone R166.D1
binds: all assays above

B4: R166.F2 (antibody, V domains shown)
VH: QSVEESGGRLVTPGTPLTLTCTASGFTISSHDMSWVRQAPGKGLEWIGYIYYGSGSTDYASWAEGRFTITRNTNENTVTLKMTSLTTEDTATYFCARGGYVGGGVDAFDPWGPGTVVTVSS
VL: AYDMTQTPASVEVAVGGTVTIKCQASQSIYTYLSWYQQKPGQPPKLLIYRASTLASGVSSRFKGSGSGTDFTLTISGAQCADAATYYCQQGALSSNIHNTFGGGTEVVVKG
notes: Rabbit monoclonal; also called clone R166.F2
binds: all assays above

B5: R166.G10 (antibody, V domains shown)
VH: QSVEESGGRLVTPGTPLTLTCTVSGFSLSSSAVSWVRQAPGKGLEYIGIIGSGGSTYYASWVNGRFTISKTSTTVDLKMTSLTAADTATYFCARYGGNSGGYDSFNLWGQGTLVTVSS
VL: DVVMTQTPASVSEPVGGTVTIKCQASQSIYSHLSWYQQKPGQPPKLLIHGASTLASGASSRFKASGSGTEFTLTISDLECADAATYYCQCTAGTSIYGNAFGGGTEVVVRG
notes: Rabbit monoclonal; also called clone R166.G10
binds: all assays above

B6: R166.G8 (antibody, V domains shown)
VH: LEQSGGGAEGGLVKPGGSLELCCKASGFSLSNIYWICWVRQAPGTGLEWIGCINSGSNSYTYYANWVDGRFTLSRDIDQSTGCLQLNSLTAADTAMYYCARDRDAADTSDWSLNFWGQGTLVTVSS
VL: QVLTQTPSSVSAAVGGTVTISCQSSDSVNNDNWLAWYQQKPGQPPKLLIYQASKLASGVPSRFSGSGSGTQFTLTISGVQCDDAANYYCQGTGYSSTWYVAFGGGTEVVVKG
notes: Rabbit monoclonal; also called clone R166.G8
binds: all assays above

B7: R166.G2 (antibody, V domains shown)
VH: QSLEESGGRLVKPDETLTITCTVSGIDLSSDAMSWVRQAPGKGLEWIGLINRYGNTYYASWAKGRFTISKTSTTVDLKVTSLTTEDTATYFCARYGTDSDFYFLDLWGQGTLVTVSS
VL: DIVMTQTPASVSEPVGGTVTIKCQASQSIYSYLSWYQQKPGQRPKLLIYKASKLVSGVPSRFRGSGSGTEFTLTISDLECADAASYYCQSDWLISSNGNTFGGGTEVVVTG
notes: Rabbit monoclonal; also called clone R166.G2
binds: all assays above
